Here are results for two molecules from article PMC7271899, “Bayesian modeling reveals metabolite‐dependent ultrasensitivity in the cyanobacterial circadian clock” (Molecular Systems Biology, 2020).

Series [1] deals with the molecule itself. The series can be described thus: SEC; Superdex 75 1660 prep grade column, step of the purification after Ni-NTA. (SEC sorts molecules by how far they enter the pores of the column.)
For another series, the target named is T1, KaiA (Synechococcus elongatus, UniProt Q79PF6 1-284).
T1 construct: KaiA, circadian clock protein of Synechococcus elongatus; source: expressed and purified as previously described (Phong et al, 2013); anion exchange on HiTrap Q columns
T1 sequence (looked up): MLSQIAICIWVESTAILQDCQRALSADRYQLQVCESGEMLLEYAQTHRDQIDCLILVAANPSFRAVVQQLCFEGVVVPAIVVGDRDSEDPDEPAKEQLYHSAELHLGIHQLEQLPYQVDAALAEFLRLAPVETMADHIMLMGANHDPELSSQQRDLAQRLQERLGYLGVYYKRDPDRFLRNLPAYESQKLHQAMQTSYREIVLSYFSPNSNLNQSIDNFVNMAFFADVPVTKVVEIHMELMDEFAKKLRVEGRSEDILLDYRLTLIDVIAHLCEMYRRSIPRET
The series can be described thus: co-IP; in vitro KaiABC clock reaction of purified proteins (KaiC present), time course; KaiB-FLAG precipitated with monoclonal anti-FLAG M2 antibody, eluted with 3xFLAG peptide; KaiA left in the supernatant quantified by SDS-PAGE (SYPRO Ruby) against 1.5 uM GFP as internal standard. The following applies: both partners purified.

B1: C-terminal domain of KaiA (residues 181-284) (domain or fragment, Synechococcus elongatus, UniProt Q79PF6 181-284, looked up)
chain: NLPAYESQKLHQAMQTSYREIVLSYFSPNSNLNQSIDNFVNMAFFADVPVTKVVEIHMELMDEFAKKLRVEGRSEDILLDYRLTLIDVIAHLCEMYRRSIPRET
notes: KaiA of Synechococcus elongatus, C-terminal domain, residues 181-284; Uniformly 15N labelled, grown in deuterated water, for NMR; Purified as described in Chang et al, 2011, 2012; Tseng et al, 2014; also called C-terminal KaiA; source: E. coli BL21(DE3), M9 media with 15N NH4Cl in 98% D2O, purified (Ni-NTA, SEC on Superdex 75)
On to B1, for which the “stoichiometry N” value in series [1] was determined as 2.

B2: KaiB-FLAG (natural protein, Synechococcus elongatus, UniProt Q79PF5 1-102, looked up)
chain: MSPRKTYILKLYVAGNTPNSVRALKTLKNILEVEFQGVYALKVIDVLKNPQLAEEDKILATPTLAKVLPLPVRRIIGDLSDREKVLIGLDLLYGELQDSDDF
notes: KaiB, circadian clock protein of Synechococcus elongatus; also called FLAG-tagged KaiB; source: expressed and purified as previously described (Phong et al, 2013); anion exchange on HiTrap Q columns
Regarding B2, the binding result with KaiA is on record as “binds”.

The stoichiometry N is a count of units in the complex or per binding partner.
